Bounds are passed on as bounds.

This assay has as its target HLA-A*02:01. Put plainly: IEDB peptide-MHC binding, cellular MHC/competitive/fluorescence; ≥ and ≤ were set here for values at or beyond the usual limits of such assays.
The mark [1] stands for this setting: source organism: Vaccinia virus WR.

For orientation: IC50 means the point on the concentration scale where inhibition reaches its midpoint. The low end stands for inhibition by little substance, the high end for a need for much substance. Turning to IMSLNGKKHT, the IC50 under setting [1] was ≥ 70 µM. The same measure, in the same setting: in the case of IQAKTKNFT it was ≥ 70 µM; in that of IQESFIRFT, 36.2 µM. As to IQETIRSDT, the IC50 under setting [1] was 49.6 µM. As for IQGKNKRKRV, under setting [1], the half-inhibitory concentration (IC50) is ≥ 70 µM. On the same count and under the same terms, in the case of IQKSSSIDV it was 15.9 µM; in that of IQQLYEFRKV, 8.74 µM; in that of ITDAAVAVA, 8.52 µM. Still for that read-out and setting: for ITDAAVAVAA the value was 6.51 µM.

In the case of ITFALKKLI, the IC50 under setting [1] was ≥ 70 µM. On to ITFMQALQLL, for which the half-inhibitory concentration (IC50) (source organism: Influenza A virus) is 7.71 µM. Consider ITPDVIINST, for which, under setting [1], the half-inhibitory concentration (IC50) was ≥ 70 µM. Same read-out and setting: in the case of ITTMDGDKL it was 15 µM. Same read-out and setting: in the case of ITVTVTFNPV it was 6.42 µM; in that of IVALTIMGVI, 5.77 µM. Same read-out and setting: in the case of IVARRKDQT it was ≥ 70 µM; in that of IVDDDFISA, 11.5 µM; in that of IVEHLRDQSI, ≥ 70 µM. Consider IVGLDLENL, for which the IC50 under setting [1] is 14.2 µM. This lies in the double-digit micromolar range. On the same count and under the same terms, for IVISPMGKLT the value was 52.6 µM; for IVIYPNFSKA, 9.76 µM. Still for that read-out and setting: in the case of IVLPNKVRI it was 35.1 µM; in that of IVLSNTSTA, 16.9 µM; in that of IVMTPSPFYT, 6.46 µM. On the same count and under the same terms, for IVRCCAGDDI the value was 10.7 µM. IVRDMLVNRM showed an IC50 under setting [1] of 14.4 µM. The same measure, in the same setting: in the case of IVRLNQCMSA it was 7.46 µM. Same read-out and setting: for IVTLQKVLHV the value was 32.9 µM; for IVVELEPSLA, 9.09 µM; for IVVYNPSTM, 56.2 µM. Same read-out and setting: in the case of IVWEKKSLVT it was 20.7 µM.

KALSDACKKI came in with a concentration for half-maximal inhibition (IC50) under setting [1] of 14.3 µM. Consider KAMCNTRDT, for which the IC50 under setting [1] is 51.6 µM.

In turn, KAVIEYDDI showed a concentration for half-maximal inhibition (IC50) under setting [1] of 37.6 µM. The same measure, in the same setting: for KIAISSLNKL the value was 36.6 µM; for KIDKLRQIVA, 32.4 µM; for KIEPRNILI, 8.32 µM. Under setting [1], KIKHKGMSFV yielded an IC50 of 15.8 µM. This IC50 lies about 1.9-fold higher than the previous one. Same read-out and setting: for KIKVTAASPM the value was ≥ 70 µM; for KILTREMGFL, 5.47 µM.

KITFALKKL returned an IC50 under setting [1] of 17.8 µM.

KITFALKKLI: the IC50 under setting [1] was 64.7 µM.

KLIIDREVV: the IC50 under setting [1] came to 6.63 µM.

For the sequence KLIIDREVVA, the IC50 under setting [1] was determined as 15.8 µM. As to KLKYFLGSGA, the IC50 under setting [1] is 7.19 µM. This IC50 lies about 2.2-fold lower than the previous one. For the sequence KLSKLTDKKT, under setting [1], the half-inhibitory concentration (IC50) was ≥ 70 µM.

The sequence KQDIVGLDL yielded an IC50 under setting [1] of 14.2 µM.

As to KQQKKCKYCI, the half-maximal inhibitory concentration (IC50) under setting [1] was 56.4 µM.

For the sequence KQRTPGIITI, the 50% inhibitory concentration (IC50) under setting [1] is 53.2 µM. Regarding KQTFGSLPA, the concentration for half-maximal inhibition (IC50) under setting [1] is 18.9 µM. Same read-out and setting: in the case of KTFIIHKNL it was 9.47 µM; in that of KTFMLPKQDI, 33.6 µM; in that of KTKYYKFDYI, 51.5 µM. Under setting [1], KTLDFKSKKV yielded an IC50 of 52.8 µM. The IC50 values of the last two sequences are within 1.5-fold of each other.

In turn, KVDVELFIKA registered a half-maximal inhibitory concentration (IC50) under setting [1] of 8 µM. This IC50 is about 6.6-fold lower than that of the sequence before. Same read-out and setting: for KVRIFINDRM the value was 39.7 µM. The sequence KVTINNLKM came in with an IC50 under setting [1] of 5.74 µM. Under setting [1], KVTINNLKMM yielded a half-maximal inhibitory concentration (IC50) of 35.7 µM. This IC50 is about 6.2-fold higher than that of the sequence before. Still for that read-out and setting: for LAGYILTVL the value was 11.6 µM; for LAIDFGNGA, 46.6 µM. On the same count and under the same terms, in the case of LARNLGLVDI it was ≥ 70 µM.

The sequence LIAFSSGTVI had a half-maximal inhibitory concentration (IC50) under setting [1] of 7.63 µM. That is a single-digit micromolar value. The same measure, in the same setting: in the case of LIANIHNHMI it was 5.99 µM. Same read-out and setting: in the case of LIKKPYRSI it was 59.4 µM.

In turn, LIKLIEPVNA yielded an IC50 under setting [1] of 55.6 µM. The same measure, in the same setting: in the case of LIRPKILSM it was ≥ 70 µM; in that of LISMYCSKT, 12.5 µM; in that of LITSAFDLL, 30.3 µM. Turning to LITTMDGDKL, the IC50 under setting [1] was ≥ 70 µM.

Take LIVRLNQCM: the IC50 under setting [1] was 19.8 µM. This counts as double-digit micromolar. For LLKDLFPKQT, the 50% inhibitory concentration (IC50) under setting [1] was ≥ 70 µM. The same measure, in the same setting: in the case of LLTKSNNGT it was 13.9 µM; in that of LLVATDPDA, 17.4 µM.

LQFIVFLLL: under “source organism: Mammarenavirus whitewaterense”, the half-inhibitory concentration (IC50) came out at 51.6 µM. On to LQKFSFKIAI, for which the 50% inhibitory concentration (IC50) under setting [1] is ≥ 70 µM. With LQKVLHVTDT, under setting [1], the concentration for half-maximal inhibition (IC50) was ≥ 70 µM.

Sequence LQTIEIIFT returned a half-maximal inhibitory concentration (IC50) under setting [1] of 9.68 µM. On to LTASGGKVLI, for which the concentration for half-maximal inhibition (IC50) under setting [1] is ≥ 70 µM. The same measure, in the same setting: for LTAVEHIPT the value was ≥ 70 µM; for LTAVEHIPTM, 7.83 µM; for LTDSLSSQMT, 11.9 µM. Still for that read-out and setting: in the case of LTFLSGGDL it was 18.8 µM; in that of LTGSQYYFSM, 5.06 µM. Still for that read-out and setting: for LTKIDTTHV the value was 14 µM; for LTNVVNISTI, ≥ 70 µM; for LTSGEYKQCL, 20.2 µM.

As for LTTLSRHIFM, the half-inhibitory concentration (IC50) under setting [1] was 5.83 µM. The same measure, in the same setting: in the case of LTVSFIDET it was ≥ 70 µM. The same measure, in the same setting: for LVATDPDADA the value was ≥ 70 µM; for LVFIKPPLIT, 38.9 µM; for LVITKLREHM, ≥ 70 µM.

As to LVIVSDGPPT, under setting [1], the IC50 was ≥ 70 µM. Still for that read-out and setting: in the case of LVKLSSYHVV it was 14.4 µM; in that of LVKWPLLNI, 9.21 µM. The same measure, in the same setting: in the case of LVNAIIDSA it was 15.6 µM.

In the case of LVNLIQAKT, the 50% inhibitory concentration (IC50) under setting [1] was found to be 44.2 µM. Same read-out and setting: for LVTKYPMDNV the value was 12.9 µM; for LVVSTKGDV, 25.8 µM.
